Reference: PMC9478642

B1: human T-plastin, full length, wild type [human] / F-actin (filaments of α-actin) [not stated] (parent)
chain 1: MDEMATTQISKDELDELKEAFAKVDLNSNGFICDYELHELFKEANMPLPGYKVREIIQKLMLDGDRNKDGKISFDEFVYIFQEVKSSDIAKTFRKAINRKEGICALGGTSELSSEGTQHSYSEEEKYAFVNWINKALENDPDCRHVIPMNPNTDDLFKAVGDGIVLCKMINLSVPDTIDERAINKKKLTPFIIQENLNLALNSASAIGCHVVNIGAEDLRAGKPHLVLGLLWQIIKIGLFADIELSRNEALAALLRDGETLEELMKLSPEELLLRWANFHLENSGWQKINNFSADIKDSKAYFHLLNQIAPKGQKEGEPRIDINMSGFNETDDLKRAESMLQQADKLGCRQFVTPADVVSGNPKLNLAFVANLFNKYPALTKPENQDIDWTLLEGETREERTFRNWMNSLGVNPHVNHLYADLQDALVILQLYERIKVPVDWSKVNKPPYPKLGANMKKLENCNYAVELGKHPAKFSLVGIGGQDLNDGNQTLTLALVWQLMRRYTLNVLEDLGDGQKANDDIIVNWVNRTLSEAGKSTSIQSFKDKTISSSLAVVDLIDAIQPGCINYDLVKSGNLTEDDKHNNAKYAVSMARRIGARVYALPEDLVEVKPKMVMTVFACLMGRGMKRV
chain 2: not shown

Variants of: B1
Experiment: sequential low-speed/high-speed F-actin cosedimentation assay
Settings: with F-actin (filaments of α-actin); 5 μM actin, 2 μM plastin; read off a plot; scale: proportion of T-plastin in low-speed pellet
chain 1 F191A was tested, and the response was 0.04.

Same assay, conditions: with F-actin (filaments of α-actin); 5 μM actin, 2 μM plastin; read off a plot; scale: proportion of T-plastin in low-speed plus high-speed pellet
chain 1 F191A gave a response of 0.42.
